Article PMC5095703 (Biochemistry, 2016)

Tests used:
FdhC-C-term tag = FdhC-C-term tag (Acinetobacter nosocomialis, UniProt V5RDR9); experiment: X-ray crystal structure, […] Å; assay type: binding; conditions: ternary complex with dTDP-Fuc3N(R3Hb) (also with dTDP-Qui3N(R3Hb)), pH 5.0
[1] = tested on: Cc1cn([C@H]2C[C@H](O)[C@@H](COP(=O)(O)OP(=O)(O)O[C@H]3O[C@H](C)[C@@H](O)[C@H](N)[C@H]3O)O2)c(=O)[nH]c1=O; experiment: purified protein; conditions: 1 mM 3-hydroxybutanoyl-CoA, 50 mM HEPES pH 7.5, 5 mM DTNB
[2] = tested on: CC(=O)SCCNC(=O)CCNC(=O)[C@H](O)C(C)(C)COP(=O)(O)OP(=O)(O)OC[C@H]1O[C@@H](n2cnc3c(N)ncnc32)[C@H](O)[C@@H]1OP(=O)(O)O; experiment: purified protein; conditions: 5 mM dTDP-Fuc3N, 50 mM HEPES pH 7.5, 5 mM DTNB
[3] = tested on: Cc1cn([C@H]2C[C@H](O)[C@@H](COP(=O)(O)OP(=O)(O)O[C@H]3O[C@H](C)[C@H](O)[C@H](N)[C@H]3O)O2)c(=O)[nH]c1=O; experiment: purified protein; conditions: 1 mM 3-hydroxybutanoyl-CoA, 50 mM HEPES pH 7.5, 5 mM DTNB

Row | Compound | X-ray crystal structure, 1.8 Å (FdhC-C-term tag) | Km [1] [µM] | kcat [1] [s⁻¹] | kcat/Km [1] [M⁻¹ s⁻¹] | Km [2] [µM] | kcat [2] [s⁻¹] | kcat/Km [2] [M⁻¹ s⁻¹] | Km [3] [µM] | kcat [3] [s⁻¹] | kcat/Km [3] [M⁻¹ s⁻¹]
1 | CC(C)(COP(=O)(O)OP(=O)(O)OC[C@H]1O[C@@H](n2cnc3c(N)ncnc32)[C@H](O)[C@@H]1OP(=O)(O)O)[C@@H](O)C(=O)NCCC(=O)NCCS [CoA] | the observed electron density for the CoA and the dTDP-Fuc3N(R3Hb) ligands |  |  |  |  |  |  |  |  | 
2 | FdhC (Acinetobacter nosocomialis) |  | 5300 ± 800 | 24.7 ± 1.7 | 4700 | 40 ± 10 | 0.0034 ± 0.0002 | 85 | 650 ± 70 | 52.7 ± 2.1 | 81000
3 | FdhC-C-term tag (Acinetobacter nosocomialis) |  |  |  |  |  |  |  | 1500 ± 200 | 38.3 ± 1.9 | 26000
